2 substances from article PMC3405907 can be followed below.

One may read the stoichiometry N as the number of molecules, sites or subunits per partner or assembly.

For assay [1], the target named is capsid shell protein (CSP) of cytoplasmic polyhedrosis virus (cytoplasmic polyhedrosis virus (CPV)). In words: cryo-EM structure.
The target in assay [2] is turret protein (TP) of cytoplasmic polyhedrosis virus (cytoplasmic polyhedrosis virus (CPV)). In words: cryo-EM structure.

“capsid shell protein (CSP) of cytoplasmic polyhedrosis virus (natural protein)”: the stoichiometry N in assay [1] was determined as 120.

With “turret protein (TP) of cytoplasmic polyhedrosis virus (enzyme)”, the stoichiometry N in assay [2] stood at 5.
